Experimental data as given in publication PMC12168090.

Target: NSP5, rotavirus RV Strain A RF, N-terminally Strep-tagged, full length (group A rotavirus, strain RF (RV Strain A RF))
Assay: native MS; full-length NSP5 in 200 mM ammonium acetate pH 6.9, 20 μM monomer; Q-Exactive UHMR, nESI

Question: How did the stoichiometry N turn out when “NSP5, rotavirus RV Strain A RF, N-terminally Strep-tagged, full length (natural protein)” was run?
Answer: 10
